Laboratory results taken from patent US20260049151A1 (SHENGHE CHINA BIOPHARMACEUTICAL, published 2026).
Read-outs that look alike come from different tables or passages of the source. Each block holds one binder with its values, some of them ahead of it.

How the values were obtained:
Human-TNFR2-His [1] = molecular target: T1, Human-TNFR2-His (human, UniProt P20333 23-257); test: ELISA: Human-TNFR2-His coated (0.1 ug/mL), antibody titrated, goat anti-human IgG Fc detection (Example 2)
T1 construct: Bought protein; also called human TNFR2 protein; TNFR2 protein; not shown: His tag
T1 sequence (looked up): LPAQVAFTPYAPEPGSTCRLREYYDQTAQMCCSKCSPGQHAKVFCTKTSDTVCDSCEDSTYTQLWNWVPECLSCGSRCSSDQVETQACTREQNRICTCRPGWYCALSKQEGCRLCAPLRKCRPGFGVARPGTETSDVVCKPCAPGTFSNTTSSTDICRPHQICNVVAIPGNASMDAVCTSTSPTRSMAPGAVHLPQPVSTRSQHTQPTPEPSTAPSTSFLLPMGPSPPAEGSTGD
Method: (§1) Human-TNFR2-His (manufacturer: SINO, CAT: 10417-H08H, LOT: LC15NO0412) was diluted to 0.1 μg/mL with a coating solution (1×PBS, pH7.4), and coated in 96-well ELISA plate at 100 µL/well overnight at 4° C. The coating solution was poured off. Each well was washed with 1×PBST at 300 μL, washed 4 times with a plate washer, and patted dry on a flat paper. It was blocked with 3% skim milk powder at 300 μL/well, and incubated at 37° C. for 1 h. The blocking solution was poured off, washed 4 times with a plate washer, and patted dry on a flat paper. Negative control and positive control were set up. […] The positive control and antibody were diluted to 10 μg/mL with 3% skim milk powder as the starting concentration, and then diluted by 3-fold gradient (11 gradients in total), and a blank well was set up and only the diluent was added. It was incubated at 37° C. for 1 h at 100 μL/well. The liquid in the well was discarded, washed 4 times with a plate washer, and patted dry on a flat paper. Goat anti-human IgG Fc was diluted with 3% skim milk powder at 1:10000, and incubated at 37° C. for 1 h at 100 μL/well. It was washed 6 times with a plate washer, and patted dry on a flat paper. TMB color developing solution was added at 100 μL/well, and wrapped with aluminum foil. Color development was performed at 37° C. in the dark for 8 min. Termination solution 1M HCl was added to terminate the color development reaction at 100 μL/well. Readings were taken at 450 nm on an ELISA reader.

Human 4-1BB His [2] = molecular target: T2, Human 4-1BB His (human, UniProt Q07011 24-186); test: ELISA: Human 4-1BB His coated (0.2 ug/mL), antibody titrated, goat anti-human IgG Fc detection (Example 3)
T2 construct: Bought protein; lots 198-2146F1-W6 and 2407c-214FF1-YC; also called human 4-1BB protein; 4-1BB protein; not shown: His tag
T2 sequence (Q07011 24-186 limits assumed): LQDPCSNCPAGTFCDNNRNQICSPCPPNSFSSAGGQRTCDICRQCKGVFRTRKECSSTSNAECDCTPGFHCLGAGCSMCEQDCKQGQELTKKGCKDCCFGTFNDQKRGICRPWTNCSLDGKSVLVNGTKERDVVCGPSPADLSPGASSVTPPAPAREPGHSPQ
Method: (§2) Human 4-1BB His (manufacturer: Acro, CAT: 41B-H5258, LOT: 198-2146F1-W6) was diluted to 0.2 μg/mL with a coating solution (1×PBS, pH7.4), and coated in 96-well ELISA plate at 100 μL/well overnight at 4° C. The coating solution was poured off. Each well was washed with 1×PBST at 300 μL, washed 4 times with a plate washer, and patted dry on a flat paper. It was blocked with 3% skim milk powder at 300 μL/well, and incubated at 37° C. for 1 h. The blocking solution was poured off, washed 4 times with a plate washer, and patted dry on a flat paper. Negative control and positive control were set up. […] The variable region of the antibody sequence of the positive control consists of SEQ ID NO: 15 and SEQ ID NO: 19, with the addition of the constant region of human IgG1 (SEQ ID NO: 46 and SEQ ID NO: 47). The positive control and antibody were diluted to 10 μg/mL with 3% skim milk powder as the starting concentration, and then diluted by 3-fold gradient (11 gradients in total), and a blank well was set up and only the diluent was added. It was incubated at 37° C. for 1 h at 100 μL/well. The liquid in the well was discarded, washed 4 times with a plate washer, and patted dry on a flat paper. Goat anti-human IgG Fc was diluted with 3% skim milk powder at 1:20000, and incubated at 37° C. for 1 h at 100 μL/well. It was washed 6 times with a plate washer, and patted dry on a flat paper. TMB color developing solution was added at 100 μL/well, and wrapped with aluminum foil. Color development was performed at 37° C. in the dark for 8 min. Termination solution 1M HCl was added to terminate the color development reaction at 100 μL/well. Readings were taken at 450 nm on an ELISA reader.

Human 4-1BB Fc = molecular target: T3, Human 4-1BB Fc (human, UniProt Q07011 24-186); test: bridging ELISA: Human 4-1BB Fc coated (0.3 ug/mL), antibody titrated, then Human-TNFR2-His (0.3 ug/mL), HRP anti-His detection (Example 4)
T3 construct: same catalogue and lot number as Human 4-1BB His; not shown: Fc
T3 sequence (Q07011 24-186 limits assumed): as above
Method: Human 4-1BB Fc (manufacturer: Acro, CAT: 41B-H5258, LOT: 198-2146F1-W6) was diluted to 0.3 μg/mL with a coating solution (1×PBS, pH7.4) and coated into a 96-well ELISA plate at 100 µL/well at 4° C. overnight. The coating solution was poured off. Each well was washed with 1×PBST at 300 μL, washed 4 times with a plate washer, and patted dry on a flat sheet. It was blocked with 3% skim milk powder at 300 μL/well, and incubated at 37° C. for 1 h. The blocking solution was poured off, washed 4 times with a plate washer, and patted dry on a flat sheet. […] Starting at 50 nM, which was used as the initial concentration for 3-fold dilution, a total of 10 gradients were diluted, and a blank well was set up and only the diluent was added. It was incubated at 37° C. for 1 h at 100 μL/well. The liquid in the well was discarded, washed 4 times with a plate washer, and patted dry on a flat paper. Human-TNFR2-His (manufacturer: Sino, CAT: 10417-H08H, LOT: LC15NO0412) was diluted to 0.3 μg/mL, 100 μL was added to each well, and incubated at room temperature for 1 h. The plate was washed 3 times with PBST, and then the HRP-labeled his antibody was diluted with sample diluent at 1:5000, 100 μ L was added to each well, and incubated at room temperature for 1 h. It was washed 6 times with a plate washer, and patted dry on a flat paper. TMB color developing solution was added at 100 μL/well, and wrapped with aluminum foil. Color development was performed at 37° C. in the dark for 8 min. Termination solution 1M HCl was added to terminate the color development reaction at 100 μL/well. Readings were taken at 450 nm on an ELISA reader.

Human-TNFR2-His [3] = molecular target: T1, Human-TNFR2-His; test: ELISA: Human-TNFR2-His coated (0.1 ug/mL), antibody titrated, goat anti-human IgG Fc detection (Example 2); remark: listed apart in the source
Method: as §1

Human 4-1BB His [4] = molecular target: T2, Human 4-1BB His; test: ELISA: Human 4-1BB His coated (0.2 ug/mL), antibody titrated, goat anti-human IgG Fc detection (Example 3); remark: listed apart in the source
Method: as §2

Human TNFR2 mFc = molecular target: T4, Human TNFR2 mFc (human, UniProt P20333 23-257); test: bridging ELISA: Human TNFR2 mFc coated (0.3 ug/mL), antibody titrated, then Human 4-1BB His (0.3 ug/mL), HRP anti-His detection (Example 5)
T4 construct: Bought protein; not shown: mFc
T4 sequence (looked up): T1 sequence (looked up)
Method: Human TNFR2 mFc (manufacturer: Kaixia, CAT: TN-HM3R2, LOT: 031202) was diluted to 0.3 μg/mL with a coating solution (1×PBS, pH7.4) and coated into a 96-well ELISA plate at 100 μL/well at 4° C. overnight. The coating solution was poured off. Each well was washed with 1×PBST at 300 μL, washed 4 times with a plate washer, and patted dry on a flat paper. It was blocked with 3% skim milk powder at 300 μL/well, and incubated at 37° C. for 1 h. The blocking solution was poured off, washed 4 times with a plate washer, and patted dry on a flat paper. […] Starting at 50 nM, which was used as the initial concentration for 3-fold dilution, a total of 10 gradients were diluted, and a blank well was set up and only the diluent was added. It was incubated at 37° C. for 1 h at 100 µL/well. The liquid in the well was discarded, washed 4 times with a plate washer, and patted dry on a flat paper. Human 4-1BB His (manufacturer: Acro, CAT: 41B-H5258, LOT: 198-2146F1-W6) was diluted to 0.3 μg/mL, 100 μL was added to each well, and incubated at room temperature for 1 h. The plate was washed 3 times with PBST, and then the HRP-labeled his antibody was diluted with sample diluent at 1:5000, 100 μ L was added to each well, and incubated at room temperature for 1 h. It was washed 6 times with a plate washer, and patted dry on a flat paper. TMB color developing solution was added at 100 μL/well, and wrapped with aluminum foil. Color development was performed at 37° C. in the dark for 8 min. Termination solution 1M HCl was added to terminate the color development reaction at 100 μL/well. Readings were taken at 450 nm on an ELISA reader.

Human-TNFR2-His [5] = molecular target: T1, Human-TNFR2-His; test: ELISA: Human-TNFR2-His coated (0.1 ug/mL), antibody titrated, goat anti-human IgG Fc detection (Example 2); remark: listed apart in the source
Method: as §1

Human 4-1BB His [6] = molecular target: T2, Human 4-1BB His; test: ELISA: Human 4-1BB His coated (0.2 ug/mL), antibody titrated, goat anti-human IgG Fc detection (Example 3); remark: listed apart in the source
Method: as §2

Human-TNFR2-His [7] = molecular target: T1, Human-TNFR2-His; test: ELISA: Human-TNFR2-His coated (0.1 ug/mL), antibody titrated, goat anti-human IgG Fc detection (Example 2); remark: listed apart in the source
Method: as §1

EC50 (read off the curve) (Human-TNFR2-His [1]): ~0.1 nM | EC50 (read off the curve) (Human 4-1BB His [2]): ~0.3 nM | EC50 (read off the curve) (Human 4-1BB Fc): ~0.3 nM
B1: Antibody N (bispecific antibody, human IgG1, kappa)
light: EVQLVESGGGLVQPGGSLRLSCAASGSRLDYYAVAWFRQAPGKEREEVSCITYSGGSTNYAESVKGRFTISRDNSKNTLYLQMNSLRAEDTAVYYCTTEPYGSSCPLSGYDTWGQGTLVTVSSGGGGSGGGGSGGGGSDIQMTQSPSSLSASLGDRVTISCSASQGISNYLNWYQQKPDGTVKLLIYYTSTLHSGVPSRFSGSGSGTDYTLTISSLQPEDIATYYCQQYSKLPWTFGGGTKLEIKRTVAAPSVFIFPPSDEQLKSGTASVVCLLNNFYPREAKVQWKVDNALQSGNSQESVTEQDSKDSTYSLSSTLTLSKADYEKHKVYACEVTHQGLSSPVTKSFNRGEC
heavy: not shown
notes: IgG1 subtype; full-length 4-1BB antibody with TNFR2 VHH at the N-terminus of the light chains

EC50 (read off the curve) (Human-TNFR2-His [3]): ~0.1 nM | EC50 (read off the curve) (Human 4-1BB His [4]): ~0.07 nM | EC50 (read off the curve) (Human 4-1BB Fc): ~0.5 nM | EC50 (read off the curve) (Human TNFR2 mFc): ~0.2 nM
B2: Antibody G (bispecific antibody, human IgG1, kappa)
light: DIVMTQSPATLSVSPGERATLSCKASQNVGSNVDWYQQKPGQSPRVLIYKASIRYTGIPARFSGSGSGTEFTLTISILQSEDFAVYFCMQSKSYPITFGQGTKLEIKRTVAAPSVFIFPPSDEQLKSGTASVVCLLNNFYPREAKVQWKVDNALQSGNSQESVTEQDSKDSTYSLSSTLTLSKADYEKHKVYACEVTHQGLSSPVTKSFNRGEC
heavy: not shown
notes: IgG1 subtype; full-length TNFR2 antibody with 4-1BB scFv at the N-terminus of the heavy chains

EC50 (read off the curve) (Human-TNFR2-His [5]): ~0.2 nM | EC50 (read off the curve) (Human 4-1BB His [6]): 0.3 to 0.4 nM
B3: Antibody E2 (bispecific antibody, human IgG4 S228P, kappa)
light: B2 light
heavy: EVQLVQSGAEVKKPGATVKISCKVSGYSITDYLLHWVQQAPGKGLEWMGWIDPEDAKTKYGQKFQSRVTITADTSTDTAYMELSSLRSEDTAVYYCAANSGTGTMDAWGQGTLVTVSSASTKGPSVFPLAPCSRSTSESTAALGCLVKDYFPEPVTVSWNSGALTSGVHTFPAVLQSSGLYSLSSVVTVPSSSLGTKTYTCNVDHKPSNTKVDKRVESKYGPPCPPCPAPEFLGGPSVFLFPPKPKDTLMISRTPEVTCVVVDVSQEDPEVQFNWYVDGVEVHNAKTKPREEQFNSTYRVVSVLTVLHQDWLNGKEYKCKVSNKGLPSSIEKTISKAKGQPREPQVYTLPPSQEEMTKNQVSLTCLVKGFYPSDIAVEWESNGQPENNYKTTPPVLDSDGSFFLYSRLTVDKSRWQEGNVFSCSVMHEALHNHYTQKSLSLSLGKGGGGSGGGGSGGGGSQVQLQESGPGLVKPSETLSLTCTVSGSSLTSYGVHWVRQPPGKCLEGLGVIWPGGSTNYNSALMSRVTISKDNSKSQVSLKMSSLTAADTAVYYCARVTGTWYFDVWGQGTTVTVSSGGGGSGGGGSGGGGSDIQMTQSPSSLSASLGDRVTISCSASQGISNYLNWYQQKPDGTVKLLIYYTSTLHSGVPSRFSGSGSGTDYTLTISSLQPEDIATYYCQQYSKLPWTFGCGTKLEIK
notes: IgG4 subtype; same order as E1

EC50 (read off the curve) (Human-TNFR2-His [7]): ~0.6 nM | EC50 (read off the curve) (Human 4-1BB His [2]): ~0.1 nM | EC50 (read off the curve) (Human 4-1BB Fc): ~0.3 nM | EC50 (read off the curve) (Human TNFR2 mFc): ~0.2 nM
B4: Antibody K (bispecific antibody, human IgG1, kappa)
light: DIQMTQSPSSLSASLGDRVTISCSASQGISNYLNWYQQKPDGTVKLLIYYTSTLHSGVPSRFSGSGSGTDYTLTISSLQPEDIATYYCQQYSKLPWTFGGGTKLEIKRTVAAPSVFIFPPSDEQLKSGTASVVCLLNNFYPREAKVQWKVDNALQSGNSQESVTEQDSKDSTYSLSSTLTLSKADYEKHKVYACEVTHQGLSSPVTKSFNRGECGGGGSGGGGSEVQLVESGGGLVQPGGSLRLSCAASGSRLDYYAVAWFRQAPGKEREEVSCITYSGGSTNYAESVKGRFTISRDNSKNTLYLQMNSLRAEDTAVYYCTTEPYGSSCPLSGYDTWGQGTLVTVSS
heavy: not shown
notes: IgG1 subtype; full-length 4-1BB antibody with TNFR2 VHH at the C-terminus of the light chains
